Results: US20220170028A1, “NOVEL INTERLEUKIN-2 VARIANTS AND BIFUNCTIONAL FUSION MOLECULES THEREOF” (Cugene Inc, priority 2019, published 2022)
Entries after “also recorded” stand apart in the source; their conditions may differ.

Tests used:
[1] = Aggregate content by size-exclusion chromatography after Protein A purification; type: physicochemical; details: for Aggregation % (SEC): after MabSelectSure; for aggregates / high-molecular weight species (SEC): Example 4
Protocol: For affinity chromatography each supernatant was loaded on a HiTrap MabSelectSure column (CV=5 mL, GE Healthcare) equilibrated with 25 ml phosphate buffered saline, pH 7.2 (ThermoFisher). Unbound protein was removed by washing with 5 column volumes PBS, pH 7.2 and target protein was eluted with 25 mM sodium citrate, 25 mM sodium chloride, pH 3.2. Protein solution was neutralized by adding 3% of 1 M Tris pH 10.2. Ion exchange chromatography or mix-mode chromatography, including but not limited to CaptoMMC (GE Healthcare), ceramic hydroxyapatite, or ceramic fluoroapatite (Bio-Rad) was also utilized to polish the Protein A material as needed. Target protein was concentrated with an Amicon®Ultra-15 concentrator 10 KDa NMWC (Merck Millipore Ltd.)
The purity and molecular weight of the purified constructs were analyzed by SDS-PAGE with and in the absence of a reducing agent and staining with Coomassie (Imperial® Stain). The NuPAGE® Pre-Cast gel system (4-12% or 8-16% Bis-Tris, ThermoFisher) was used according to the manufacturer's instructions. The protein concentration of purified protein samples was determined by measuring the UV absorbance at 280 nm (Nanodrop Spectrophotometer, ThermoFisher) divided by the molar extinction coefficient calculated on the basis of the amino acid sequence. The aggregate content of the constructs was analyzed on an Agilent 1200 high-performance liquid chromatography (HPLC) system. Samples were injected onto an AdvanceBio size-exclusion column (300 Å, 4.6×150 mm, 2.7 μm, LC column, Agilent) using 150 mM sodium phosphate, pH 7.0 as the mobile phase at 25° C.
(§1) S125I substitution was thus introduced into a number of IL-2 variant Fc fusion molecules. The constructs harboring Ile-125 substitution in IL-2 were expressed using the same vector and in the same culturing conditions as their Ser-125 counterparts and purified using MabSelectSure. The expression level in mg/L and purity assessed by SEC chromatography in aggregation % of exemplary molecules are summarized in Table 6. The two molecules in the same row of Table 6 share the same other amino acid substitution(s) and differ only at residue 125 with either serine or isoleucine. As an example, the SEC chromatogram and SDS-PAGE pictures of P-0447 (SEQ ID NO: 173) and its Ile-125 counterpart P-0511 (SEQ ID NO: 213) were further illustrated in FIGS. 1D and 1E.

[2] = Transient expression level of IL-2 Fc fusion constructs in HEK-293F cells; details: for expression level (titer): transiently in HEK-293F cells, Example 4
Protocol: The constructs were produced by co-transfecting HEK293-F cells growing in suspension with the mammalian expression vectors using polyethylenimine (PEI, 25,000 MW linear, Polysciences). If there were two or more expression vectors, the vectors were transfected in a 1:1 ratio. For transfection, HEK293 cells were cultivated in serum free FreeStyle™ 293 Expression Medium (ThermoFisher). For production in 1000 ml shaking flasks (working volume 330 mL), HEK293 cells were seeded at a density of 0.8×10^6 cells/ml 24 hours before transfection. A total of 330 μg of DNA expression vectors were mixed with 16.7 ml Opti-mem Medium (ThermoFisher). After addition of 0.33 mg PEI diluted in 16.7 ml Opti-mem Medium, the mixture was vortexed for 15 sec and subsequently incubated for 10 min at room temperature. The DNA/PEI solution was then added to the cells and incubated at 37° C. in an incubator with 8% CO2. Sodium butyrate (Millipore Sigma) was added to the cells at day 4 at a final concentration of […] to help sustain protein expression. After 6 days cultivation, supernatant was collected for purification by centrifugation for 20 min at 2200 rpm. The solution was sterile filtered (0.22 μm filter, Corning). The secreted protein was purified from cell culture supernatants using Protein A affinity chromatography.
as §1

[3] = test system: CD4+ Treg vs CD4+ Tconv cells; test: STAT5 phosphorylation, selectivity / activity profile Treg versus CD4+ Tconv cells, human PBMC; type: cell-based
Excerpt: (§2) Single amino acid substitutions were introduced to IL-2 at positions corresponding to amino acids interacting with receptor subunit(s) β or γ or βγ. These substitutions were aimed to reduce IL-2 signaling capacity through the intermediate affinity IL-2Rβγ complex and confer signaling specificity from the high affinity IL-2Rαβγ. IL-2 variants containing single amino acid substitutions were examined for their ability to differentially stimulate STAT5 phosphorylation in CD4 positive Treg and Tconv cells. STAT5 is known to be involved in the downstream signaling cascade upon IL-2 binding to the transmembrane IL-2 receptors. The phosphorylation of STAT5 in defined lymphocyte subpopulations was measured using fresh human peripheral blood mononuclear cells (PBMC) and the forkhead transcription factor FOXP3 was used to identify the Treg population in FACS analysis.
(§3) Briefly, human PBMC were isolated by Ficoll-Hypaque centrifugation from the buffy coat of a healthy donor. PBMC were starved in serum-free MACS buffer at 4° C. for 1 hour. 2×10^5 PBMC were then treated with serial dilutions of test compounds for 30 min at 37° C. Cells were fixed and permeabilized with Foxp3/Transcription Factor Staining Buffer Set (EBIO) by incubating with 1× Foxp3 fixation/permeabilization working solution for 30 minutes and washing with 1× permeabilization buffer. Cells were additionally fixed with Cytofix buffer and permeabilized with Perm Buffer III (BD Biosciences) and then washed. After blocking Fc receptors by adding human TruStain FcX (1:50 dilution), cells were stained with a mixture of anti-CD25-PE, anti-FOXP3-APC, anti-pSTAT5-FITC, and anti-CD4-PerCP-Cy5.5 antibodies at concentrations recommended by the manufacturer for 45 minutes at room temperature. Cells were collected by centrifugation, washed, resuspended in FACS buffer, and analyzed by flow cytometry. The flow cytometry data was gated into CD4+/Foxp3+/CD25^high and CD4+/Foxp3−/CD25^low groups for the Treg and CD4 conventional T cell subsets, respectively. Data are expressed as a percent of pStat5 positive cells in gated population.
The S125I substitution was then introduced into wild-type IL-2 or IL-2 variants that already harbored 1 or 2 mutations targeting receptor subunit(s) β or γ or βγ. The resulting IL-2 variants containing isoleucine at position 125 were tested for their ability to stimulate STAT5 phosphorylation in Treg and Tconv cells in comparison with their respective serine counterparts at position 125. Table 7 lists the potency and selectivity of IL-2 variants in Treg cells. The two molecules in the same row of Table 7 share the same other amino acid substitution(s) and differ only at position 125 with either serine or isoleucine.

[4] = test system: STAT5 phosphorylation in CD4+ Treg cells; test: STAT5 phosphorylation in CD4+ Treg cells, human PBMC assay by FACS; type: cell-based
Excerpt: as §2, §3

[5] = test system: STAT5 phosphorylation in CD4+ Tconv cells; test: STAT5 phosphorylation in CD4+ Tconv cells, human PBMC assay by FACS; type: cell-based
Excerpt: as §2, §3

Substance	Aggregation % (SEC) ([1]; Serine-125 constructs) [%]	Expression ([2]; Serine-125 constructs) [mg/L]	expression level (titer) [2]	potency in Treg cells relative to CD4+ Tconv cells [3]	Treg Selectivity ([3]; Serine-125 constructs)	aggregates / high-molecular weight species (SEC) [1] [%]	STAT5 phosphorylation activity in Treg cells (in words) [4]	STAT5 phosphorylation activity in CD4+ Tconv cells (in words) [5]	activity profile / selectivity window Treg over CD4+ Tconv (in words) [3]	Aggregation % (SEC) ([1]; Isoleucine-125 constructs) [%]	Expression ([2]; Isoleucine-125 constructs) [mg/L]	Treg Selectivity ([3]; Isoleucine-125 constructs)
P-0250: wild type IL-2 Fc fusion protein, C-terminal fusion, SEQ ID NO: 71 [reference compound]	25.7	3.1	around 3 mg/L	about 250 fold	Yes							
P-0317: IL-2 D20I/N88R Fc fusion, SEQ ID NO: 96			similarly low level			7.5						
P-0318: IL-2 D20I/N88I Fc fusion, SEQ ID NO: 97			similarly low level			65						
P-0363: IL-2 D20T Fc fusion, SEQ ID NO: 74	29.4	1.4					ability to induce STAT5 phosphorylation	largely diminished or abolished	some or significant biased selective window			
P-0364: IL-2 D20E Fc fusion, SEQ ID NO: 75	21.1	0.7			Yes		ability to induce STAT5 phosphorylation	largely diminished or abolished				
P-0372: IL-2 L19Y Fc fusion, SEQ ID NO: 81	21.7	4.0	4.0 mg/L		Yes	21.7	minimally impacted the pSTAT5 activation potency	largely retained the biological activity	modestly improved selective window			
P-0419: IL-2 L19Y/Q126E Fc fusion, SEQ ID NO: 105	33.8	6.7			Yes		mainly reserved; also recorded: retained comparable potency; also recorded: significant potency	varied significantly; also recorded: largely abolished	significantly widened; also recorded: very comparable to that of the Benchmark-1 molecule; also recorded: comparable activity profile to Benchmark-1			
P-0424: IL-2 L19H Fc fusion, SEQ ID NO: 153	21.4	7.7			Yes			reduced	selective activation of Treg cells over CD4+ Tconv cells			
P-0425: IL-2 L19D Fc fusion, SEQ ID NO: 154	32.6	2.6			Yes		slightly reduced potency	significantly impaired	wide window for selective targeting of Treg subset			
P-0447: IL-2 L19H/Q126E Fc fusion, SEQ ID NO: 173	23.7	7.3			Yes		robust biological activity; also recorded: significant potency	nearly completely abolished; also recorded: largely abolished	on par with Benchmark-2			
P-0471: IL-2 L19Y/S125I Fc fusion, SEQ ID NO: 183			19.3 mg/L			1	retained comparable potency	varied significantly		1.0	19.3	Yes
P-0491: IL-2 L19H/S125I Fc fusion, SEQ ID NO: 190							slightly increased potency		without altering Treg selectivity	0.6	36.7	Yes
P-0492: IL-2 L19D/S125I Fc fusion, SEQ ID NO: 191										0	13.6	Yes
P-0493: IL-2 D20E/S125I Fc fusion, SEQ ID NO: 192										1.7	7.9	Yes
P-0494: IL-2 D20T/S125I Fc fusion, SEQ ID NO: 193										0.5	11.7	
P-0495: IL-2 L19Y/S125I/Q126E Fc fusion, SEQ ID NO: 194										0.8	23.5	Yes
